Reference: patent US20240270857A1 (CHIA TAI TIANQING PHARMACEUTICAL GROUP, published 2024)

Legend:
[1] = target: T1, human IL-36R overexpressed on 293T-hIL36R-NFκB cells (human, UniProt Q9HB29 20-575); test: FACS on 293T-hIL36R-NFκB cells, ratio of MFI to background MFI
T1 construct: Entry includes the signal peptide; also called IL1RL2; IL-1Rrp2
T1 sequence: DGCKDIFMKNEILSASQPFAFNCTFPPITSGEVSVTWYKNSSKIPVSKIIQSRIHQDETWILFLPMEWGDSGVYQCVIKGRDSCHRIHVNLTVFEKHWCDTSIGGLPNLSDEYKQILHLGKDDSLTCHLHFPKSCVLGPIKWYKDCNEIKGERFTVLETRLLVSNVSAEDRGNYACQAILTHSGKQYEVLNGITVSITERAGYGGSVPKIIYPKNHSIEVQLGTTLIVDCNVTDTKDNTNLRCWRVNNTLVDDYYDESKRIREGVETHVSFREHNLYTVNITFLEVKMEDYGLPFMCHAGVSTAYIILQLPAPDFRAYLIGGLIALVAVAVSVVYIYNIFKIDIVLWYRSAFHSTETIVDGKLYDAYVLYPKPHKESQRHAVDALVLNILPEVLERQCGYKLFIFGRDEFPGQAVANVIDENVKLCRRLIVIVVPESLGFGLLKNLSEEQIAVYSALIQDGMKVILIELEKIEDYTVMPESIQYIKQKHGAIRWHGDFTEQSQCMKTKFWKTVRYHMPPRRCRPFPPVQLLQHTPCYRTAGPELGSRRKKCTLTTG
Method: (§1) After the cells was washed with PBS, the cells were resuspended with 100 μL of PBS and then the fluorescence signal was detected using a flow cytometer (BD, Accuri C6). […] The ratio was the ratio of mean fluorescence intensity (MFI) of the experimental group/the background MFI, and the resulting data were analyzed using GraphPad Prism.

[2] = target: T2, cynomolgus IL-36R overexpressed on 293T-CynoIL36R-NFκB cells (cynomolgus monkey); test: FACS on 293T-CynoIL36R-NFκB cells, ratio of MFI to background MFI
T2 construct: Entry includes the signal peptide; also called monkey IL-36R
T2 chain: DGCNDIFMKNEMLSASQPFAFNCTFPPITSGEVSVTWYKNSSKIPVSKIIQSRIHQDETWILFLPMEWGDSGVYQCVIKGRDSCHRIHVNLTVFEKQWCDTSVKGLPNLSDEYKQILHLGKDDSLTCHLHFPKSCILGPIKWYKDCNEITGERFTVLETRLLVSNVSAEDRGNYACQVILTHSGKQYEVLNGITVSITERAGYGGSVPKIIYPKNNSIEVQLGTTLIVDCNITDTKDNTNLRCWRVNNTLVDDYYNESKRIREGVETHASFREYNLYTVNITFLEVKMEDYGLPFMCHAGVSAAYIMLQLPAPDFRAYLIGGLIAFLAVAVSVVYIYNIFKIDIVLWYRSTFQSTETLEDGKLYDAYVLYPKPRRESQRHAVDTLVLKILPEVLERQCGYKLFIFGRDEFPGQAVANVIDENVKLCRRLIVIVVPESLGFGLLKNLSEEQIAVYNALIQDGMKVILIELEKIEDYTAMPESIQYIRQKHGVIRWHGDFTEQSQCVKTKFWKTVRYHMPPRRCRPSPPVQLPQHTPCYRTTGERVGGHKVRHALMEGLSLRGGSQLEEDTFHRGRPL
Method: as §1
Affinity, binding and blocking assays for humanized antibodies hz72C1-1.1, hz72C1-1.2, hz72C1-1.3, hz72C1-2.1, hz72C1-2.2 and hz72C1-2.3 as well as hz84C4-1.1, hz84C4-1.2, hz84C4-1.3, hz84C4-1.4, hz84C4-1.5, hz84C4-2.1, hz84C4-2.2, hz84C4-2.3, hz84C4-2.4 and hz84C4-2.5 were performed according to the methods of Example 4, Example 5. Example 6, Example 7 and Example 8.

[3] = target: T1, human IL-36R overexpressed on …; test: cell-based or functional assay

B1: chimeric 72C1 antibody (antibody, human IgG4 S228P, kappa)
heavy: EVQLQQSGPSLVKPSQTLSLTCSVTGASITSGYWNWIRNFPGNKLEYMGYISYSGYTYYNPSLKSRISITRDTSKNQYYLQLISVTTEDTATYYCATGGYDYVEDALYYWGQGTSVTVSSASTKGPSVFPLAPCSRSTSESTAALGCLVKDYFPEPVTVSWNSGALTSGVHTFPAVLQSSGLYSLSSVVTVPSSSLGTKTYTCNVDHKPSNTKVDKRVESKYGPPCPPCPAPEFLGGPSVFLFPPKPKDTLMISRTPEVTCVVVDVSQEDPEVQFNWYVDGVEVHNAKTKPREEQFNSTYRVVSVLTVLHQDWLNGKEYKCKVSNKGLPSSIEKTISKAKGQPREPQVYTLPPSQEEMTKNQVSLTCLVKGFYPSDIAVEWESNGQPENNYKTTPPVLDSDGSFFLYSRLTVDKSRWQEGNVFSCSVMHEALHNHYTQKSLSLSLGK
light: EILLTQSPAIMSATLGEKVTMSCRASSNVRYMYWYQLKSGASPKLWIYLTSNLASGVPARFSGSGSGTSYSLTISSVEAEDAATYFCQQFTTSPYTFGGGTKLEIKRTVAAPSVFIFPPSDEQLKSGTASVVCLLNNFYPREAKVQWKVDNALQSGNSQESVTEQDSKDSTYSLSSTLTLSKADYEKHKVYACEVTHQGLSSPVTKSFNRGEC
notes: Mouse variable regions on human IgG4 / kappa; also called xi72C1
EC50 [1]: 2.52 nM

B2: BI655130 (antibody, human IgG1, kappa, L234A L235A)
heavy: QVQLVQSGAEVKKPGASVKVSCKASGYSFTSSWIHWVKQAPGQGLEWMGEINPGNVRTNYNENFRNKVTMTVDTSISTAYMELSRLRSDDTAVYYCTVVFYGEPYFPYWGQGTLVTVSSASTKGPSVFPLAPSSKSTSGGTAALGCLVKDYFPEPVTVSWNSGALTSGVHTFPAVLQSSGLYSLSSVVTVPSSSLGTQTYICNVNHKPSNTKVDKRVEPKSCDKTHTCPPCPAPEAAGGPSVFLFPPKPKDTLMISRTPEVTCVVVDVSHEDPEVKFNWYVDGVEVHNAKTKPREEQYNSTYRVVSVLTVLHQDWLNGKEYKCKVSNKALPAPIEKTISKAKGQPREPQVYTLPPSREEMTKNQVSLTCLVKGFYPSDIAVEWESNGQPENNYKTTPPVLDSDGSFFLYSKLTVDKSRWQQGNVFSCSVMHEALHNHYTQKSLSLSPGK
light: QIVLTQSPGTLSLSPGERATMTCTASSSVSSSYFHWYQQKPGQAPRLWIYRTSRLASGVPDRFSGSGSGTDFTLTISRLEPEDAATYYCHQFHRSPLTFGAGTKLEIKRTVAAPSVFIFPPSDEQLKSGTASVVCLLNNFYPREAKVQWKVDNALQSGNSQESVTEQDSKDSTYSLSSTLTLSKADYEKHKVYACEVTHQGLSSPVTKSFNRGEC
notes: also called Spesolimab
EC50 [2]: 7.64 nM
IC50 (M); hIL36α; NFκB-luciferase [3]: 1.75e-09 M
IC50 (M); hIL36αβγ; NFκB-luciferase [3]: 3.27e-09 M
IC50 (M); hIL36β; NFκB-luciferase [3]: 2.21e-09 M
IC50 (M); hIL36γ; NFκB-luciferase [3]: 1.1e-09 M
Maximum inhibition rate %; hIL36α; NFκB-luciferase [3]: 83.6%
Maximum inhibition rate %; hIL36αβγ; NFκB-luciferase [3]: 63.3%
Maximum inhibition rate %; hIL36β; NFκB-luciferase [3]: 85.2%
Maximum inhibition rate %; hIL36γ; NFκB-luciferase [3]: 81%
EC50 [1]: 1.33 nM

B3: chimeric 84C4 antibody (antibody, human IgG4 S228P, kappa)
heavy: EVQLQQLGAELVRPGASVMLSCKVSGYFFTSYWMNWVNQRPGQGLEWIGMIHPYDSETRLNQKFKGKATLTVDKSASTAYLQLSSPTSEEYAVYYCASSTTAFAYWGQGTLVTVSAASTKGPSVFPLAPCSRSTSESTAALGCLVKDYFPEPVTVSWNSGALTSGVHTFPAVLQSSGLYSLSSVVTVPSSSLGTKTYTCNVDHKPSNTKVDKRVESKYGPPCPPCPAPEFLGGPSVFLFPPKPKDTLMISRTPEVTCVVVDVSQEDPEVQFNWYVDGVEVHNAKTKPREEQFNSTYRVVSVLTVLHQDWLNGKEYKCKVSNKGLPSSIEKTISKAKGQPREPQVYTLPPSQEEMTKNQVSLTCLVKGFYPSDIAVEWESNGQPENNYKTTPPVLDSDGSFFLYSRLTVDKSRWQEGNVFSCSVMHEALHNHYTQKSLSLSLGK
light: DILMTQSPSSLSASLGERVSLTCRASQDIGNALNWLQQAPDGTIKRLIYATSSLDPGVPKRFSGSRSGSDYSLTISSLASEDFVYYYCLQYASSPYTFGGGTKLEIKRTVAAPSVFIFPPSDEQLKSGTASVVCLLNNFYPREAKVQWKVDNALQSGNSQESVTEQDSKDSTYSLSSTLTLSKADYEKHKVYACEVTHQGLSSPVTKSFNRGEC
notes: Mouse variable regions on human IgG4 / kappa; also called xi84C4
EC50 [1]: 0.886 nM

B4: hz84C4-1.1 (antibody, human IgG4 S228P, kappa, V domains shown)
VH: QVQLVQSGAEVKKPGASVKVSCKASGYFFTSYWMNWVRQAPGQGLEWMGMIHPYDSETRYAQKFQGRVTMTVDKSTSTVYMELSSLRSEDTAVYYCASSTTAFAYWGQGTLVTVSS
VL: DIQMTQSPSSLSASVGDRVTITCRASQDIGNALNWYQQKPGKAPKRLIYATSSLDPGVPSRFSGSRSGTDFTLTISSLQPEDFATYYCLQYASSPYTFGQGTKVEIKR
notes: Humanized, human IgG4 / kappa
EC50 [2]: 18 nM
IC50 (M); hIL36α; NFκB-luciferase [3]: 8.82e-10 M
IC50 (M); hIL36αβγ; NFκB-luciferase [3]: 1.82e-09 M
IC50 (M); hIL36β; NFκB-luciferase [3]: 9.28e-10 M
IC50 (M); hIL36γ; NFκB-luciferase [3]: 5.76e-10 M
Maximum inhibition rate %; hIL36α; NFκB-luciferase [3]: 84.1%
Maximum inhibition rate %; hIL36αβγ; NFκB-luciferase [3]: 61.2%
Maximum inhibition rate %; hIL36β; NFκB-luciferase [3]: 85.3%
Maximum inhibition rate %; hIL36γ; NFκB-luciferase [3]: 83.5%

B5: hz84C4-2.2 (antibody, human IgG4 S228P, kappa, V domains shown)
VH: QVQLVQSGAEVKKPGASVKVSCKASGYFFTSYWMNWVRQAPGQGLEWMGYIHPYDSETRYAQKFQGRVTMTVDKSTSTVYMELSSLRSEDTAVYYCASSTTAFAYWGQGTLVTVSS
VL: DIQMTQSPSSLSASVGDRVTITCRASQDIGNALNWLQQKPGKAPKRLIYATSSLDPGVPSRFSGSRSGTDYTLTISSLQPEDFATYYCLQYASSPYTFGQGTKVEIKR
notes: Humanized, human IgG4 / kappa
EC50 [2]: 17.1 nM

B6: hz84C4-1.3 (antibody, human IgG4 S228P, kappa, V domains shown)
VH: QVQLVQSGAEVKKPGASVKVSCKASGYFFTSYWMNWVRQAPGQGLEWMGMIYPYDSETRYAQKFQGRVTMTVDKSTSTVYMELSSLRSEDTAVYYCASSTTAFAYWGQGTLVTVSS
VL: DIQMTQSPSSLSASVGDRVTITCRASQDIGNALNWYQQKPGKAPKRLIYATSSLDPGVPSRFSGSRSGTDFTLTISSLQPEDFATYYCLQYASSPYTFGQGTKVEIKR
notes: Humanized, human IgG4 / kappa
EC50 [2]: 9.22 nM

B7: hz84C4-1.4 (antibody, human IgG4 S228P, kappa, V domains shown)
VH: QVQLVQSGAEVKKPGASVKVSCKASGYYFTSYWMNWVRQAPGQGLEWMGMIHPYDSETRLAQKFKGRVTMTVDKSTSTVYMELSSLRSEDTAVYYCASSTTAFAYWGQGTLVTVSS
VL: DIQMTQSPSSLSASVGDRVTITCRASQDIGNALNWYQQKPGKAPKRLIYATSSLDPGVPSRFSGSRSGTDFTLTISSLQPEDFATYYCLQYASSPYTFGQGTKVEIKR
notes: Humanized, human IgG4 / kappa
EC50 [2]: 24.4 nM

B8: hz84C4-2.1 (antibody, human IgG4 S228P, kappa, V domains shown)
VH: QVQLVQSGAEVKKPGASVKVSCKASGYFFTSYWMNWVRQAPGQGLEWMGMIHPYDSETRYAQKFQGRVTMTVDKSTSTVYMELSSLRSEDTAVYYCASSTTAFAYWGQGTLVTVSS
VL: DIQMTQSPSSLSASVGDRVTITCRASQDIGNALNWLQQKPGKAPKRLIYATSSLDPGVPSRFSGSRSGTDYTLTISSLQPEDFATYYCLQYASSPYTFGQGTKVEIKR
notes: Humanized, human IgG4 / kappa
EC50 [2]: 5.75 nM

B9: hz84C4-2.4 (antibody, human IgG4 S228P, kappa, V domains shown)
VH: QVQLVQSGAEVKKPGASVKVSCKASGYYFTSYWMNWVRQAPGQGLEWMGMIHPYDSETRLAQKFKGRVTMTVDKSTSTVYMELSSLRSEDTAVYYCASSTTAFAYWGQGTLVTVSS
VL: DIQMTQSPSSLSASVGDRVTITCRASQDIGNALNWLQQKPGKAPKRLIYATSSLDPGVPSRFSGSRSGTDYTLTISSLQPEDFATYYCLQYASSPYTFGQGTKVEIKR
notes: Humanized, human IgG4 / kappa
EC50 [2]: 48.2 nM

B10: hz84C4-2.5 (antibody, human IgG4 S228P, kappa, V domains shown)
VH: QVQLVQSGAEVKKPGASVKVSCKVSGYFFTSYWMNWVNQAPGQGLEWMGMIHPYDSETRLAQKFKGRVTMTVDKSTSTVYMELSSLRSEDTAVYYCASSTTAFAYWGQGTLVTVSS
VL: DIQMTQSPSSLSASVGDRVTITCRASQDIGNALNWLQQKPGKAPKRLIYATSSLDPGVPSRFSGSRSGTDYTLTISSLQPEDFATYYCLQYASSPYTFGQGTKVEIKR
notes: Humanized, human IgG4 / kappa
EC50 [2]: 11.9 nM
IC50 (M); hIL36α; NFκB-luciferase [3]: 9.38e-10 M
IC50 (M); hIL36αβγ; NFκB-luciferase [3]: ~1.55e-09 M
IC50 (M); hIL36β; NFκB-luciferase [3]: 7.66e-10 M
IC50 (M); hIL36γ; NFκB-luciferase [3]: 3.5e-10 M
Maximum inhibition rate %; hIL36α; NFκB-luciferase [3]: 85.7%
Maximum inhibition rate %; hIL36αβγ; NFκB-luciferase [3]: 54.4%
Maximum inhibition rate %; hIL36β; NFκB-luciferase [3]: 83.1%
Maximum inhibition rate %; hIL36γ; NFκB-luciferase [3]: 84.7%

B11: hz84C4-1.5 (antibody, human IgG4 S228P, kappa, V domains shown)
VH: QVQLVQSGAEVKKPGASVKVSCKVSGYFFTSYWMNWVNQAPGQGLEWMGMIHPYDSETRLAQKFKGRVTMTVDKSTSTVYMELSSLRSEDTAVYYCASSTTAFAYWGQGTLVTVSS
VL: DIQMTQSPSSLSASVGDRVTITCRASQDIGNALNWYQQKPGKAPKRLIYATSSLDPGVPSRFSGSRSGTDFTLTISSLQPEDFATYYCLQYASSPYTFGQGTKVEIKR
notes: Humanized, human IgG4 / kappa
EC50 [2]: 10.5 nM

B12: hz84C4-2.3 (antibody, human IgG4 S228P, kappa, V domains shown)
VH: QVQLVQSGAEVKKPGASVKVSCKASGYFFTSYWMNWVRQAPGQGLEWMGMIYPYDSETRYAQKFQGRVTMTVDKSTSTVYMELSSLRSEDTAVYYCASSTTAFAYWGQGTLVTVSS
VL: DIQMTQSPSSLSASVGDRVTITCRASQDIGNALNWLQQKPGKAPKRLIYATSSLDPGVPSRFSGSRSGTDYTLTISSLQPEDFATYYCLQYASSPYTFGQGTKVEIKR
notes: Humanized, human IgG4 / kappa
EC50 [2]: 176 nM

B13: hz84C4-1.2 (antibody, human IgG4 S228P, kappa, V domains shown)
VH: QVQLVQSGAEVKKPGASVKVSCKASGYFFTSYWMNWVRQAPGQGLEWMGYIHPYDSETRYAQKFQGRVTMTVDKSTSTVYMELSSLRSEDTAVYYCASSTTAFAYWGQGTLVTVSS
VL: DIQMTQSPSSLSASVGDRVTITCRASQDIGNALNWYQQKPGKAPKRLIYATSSLDPGVPSRFSGSRSGTDFTLTISSLQPEDFATYYCLQYASSPYTFGQGTKVEIKR
notes: Humanized, human IgG4 / kappa
EC50 [2]: 37.3 nM
